For test [1], the target named is C16:0-ACP.
The target in test [2] is C14:0-ACP.
The target of test [3] is C16:0-ACP. This is another data set of the same source.
Test [4] concerns the target C14:0-ACP. This is another data set of the same source.

In the case of “Cuphea hookeriana Class II thioesterase CUPH-1 (cDNA clone CMT9) (enzyme)”, the Fatty Acyl Composition of Transgenic Canola Seeds (mol %), 16:0 in the test with C16:0-ACP [1] was determined as 27.6 mol %. Moreover, the Fatty Acyl Composition of Transgenic Canola Seeds (mol %), 14:0 with C14:0-ACP [2] stood at 0.98 mol %. Also, the Fatty Acids (nmol/ml), total fatty acid analysis of liquid cultures of CUPH-1 transformed K27 (fadD) in the test with 16:1-ACP came to 124 nmol/mL; with 14:1-ACP it was 1.1 nmol/mL; with C12:0-ACP, 2 nmol/mL; with C16:0-ACP [3] it was 281 nmol/mL; with C14:0-ACP [4], 225 nmol/mL; with 12:1-ACP, 0.3 nmol/mL. Further, in the test with C18:1-ACP, the Fatty Acids (nmol/ml), total fatty acid analysis of liquid cultures of CUPH-1 transformed K27 (fadD) turned out to be 92.7 nmol/mL.

“elm Class II acyl-ACP thioesterase (ULM-1) (enzyme)” yielded a Fatty Acyl Composition of Transgenic Canola Seeds (mol %), 10:0 in the test with C10:0-ACP of 3.94 mol %. Besides, the Fatty Acyl Composition of Transgenic Canola Seeds (mol %), 16:0 with C16:0-ACP [1] was determined as 20 mol %.

These data come from patent US5723761.
